Results taken from the supplement of paper PMC10567573.
± gives the standard deviation.

Test: protein stability index of a GFP-peptide fusion (GPS, HEK-293T) (PSI 1-6); higher = more stable
[1] = treatment: DMSO, c terminus: a fixed tail appended
[2] = treatment: MLN4924 1 uM, 8 h, c terminus: a fixed tail appended
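Note: 24-mer peptide tiles fused after GFP, lentivirally expressed, FACS-sorted into six equal bins by GFP/DsRed ratio, decoded by Illumina sequencing, PSI is the read-weighted mean bin number.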

| Sequence | protein stability index [1] | protein stability index [2] | protein stability index (treatment: DMSO, c terminus: native) | protein stability index (treatment: MLN4924 1 uM, 8 h, c terminus: native) |
| --- | --- | --- | --- | --- |
| QLCEKAPKEATVMCEQCDVFYCDP [TRIM9] | 4.33 ± 0.081 | 4.33 ± 0.25 | – | – |
| QLHHVVYCFMIAYGTQRTLILESQ [FUT8] | 3.12 ± 0.55 | 3.17 ± 0.36 | – | – |
| QLNRRGEFIQEIRRQLEACQRERA [OAS1] | 4.09 ± 0.19 | 3.79 ± 0.075 | – | – |
| QLQAARNEYLLNLVATNAHLDHYY [FCHSD1] | 2.58 ± 0.44 | 2.55 ± 0.73 | – | – |
| QLQSMPSRELASMNLDIVDLLKKA [RHOBTB3] | 3.46 ± 0.35 | 3.79 ± 0.47 | – | – |
| QMMPYMQPVMQSDRTAIRSDTTHL [KLHL13] | 3.5 ± 0.24 | 3.5 ± 0.23 | – | – |
| QNPKDCSKAKKLVCNINKGCGYGC [FUT8] | 3.53 ± 0.1 | 3.48 ± 0.17 | – | – |
| QPLEASNPALEGLTQPLQGGTPHC [DNAAF3] | 5.11 ± 0.15 | 5.09 ± 0.35 | – | – |
| QPPPQSSEGLVGALMHVMQKRSRA [WAS] | 4.21 ± 0.41 | 4.24 ± 0.12 | – | – |
| QQQHIECVVCGDKSSGKHYGQFTC [NR2F2] | 3.06 ± 0.24 | 3.12 ± 0.48 | – | – |
| QREEHELVHVMERSLSPSLSSVDM [RAD54B] | 4.62 ± 0.31 | 4.76 ± 0.11 | – | – |
| QRGRVISLWERLEFVNGWYILLVT [MCOLN1] | 2.79 ± 0.68 | 2.67 ± 0.65 | – | – |
| QSGFEMLKDVKSTLEKCEKVKTME [TRIM39] | 5.11 ± 0.2 | 4.86 ± 0.2 | – | – |
| QSGLVWTNCWLIRELNLPFGGMKS [ALDH8A1] | 2.6 ± 0.48 | 2.61 ± 0.68 | – | – |
| QTAVQFQQYAAQQYPGNYEQQQIL [ACBD3] | 3.71 ± 0.22 | 3.61 ± 0.23 | – | – |
| QTESGSEEVSSTVHIETFTTRHGE [C10orf62] | 5.21 ± 0.3 | 5.27 ± 0.34 | – | – |
| QTLQALNFCHIHNCIHRDIKPENI [CDKL4] | 2.47 ± 0.28 | 2.34 ± 0.26 | – | – |
| QVAMPYQWEYPYLLSILPSLLGLL [JAGN1] | 2.8 ± 0.36 | 2.85 ± 0.64 | – | – |
| QVDPGTDLEPGVLMSAQTITSETT [EPB41L3] | 5.21 ± 0.32 | 5.16 ± 0.13 | – | – |
| QVPSGEDQTALSLEECLRLLEATC [NFE2L1] | 4.02 ± 0.98 | 3.96 ± 0.31 | – | – |
| QWEYPYLLSILPSLLGLLSFPRNN [JAGN1] | 2.85 ± 0.25 | 2.94 ± 0.35 | – | – |
| RAACFDGHLEIVKYLVEHKADLEV [FEM1C] | 2.59 ± 0.31 | 2.66 ± 0.58 | – | – |
| RADFVLAANSYDLAIKAITSSAKV [FKBP8] | 2.72 ± 0.18 | 2.84 ± 0.3 | – | – |

| Sequence | protein stability index [1] | protein stability index [2] | protein stability index (treatment: DMSO, c terminus: native) | protein stability index (treatment: MLN4924 1 uM, 8 h, c terminus: native) |
| --- | --- | --- | --- | --- |
| RADVDHAIEKAFQLWSNVTPLTFT [MMP1] | 2.13 ± 0.2 | 2.44 ± 0.32 | – | – |
| RAGSQVVATTARHSAAYRADPLRV [FUNDC2] | 3.59 ± 0.22 | 3.78 ± 0.17 | – | – |
| RANRGILQQERQRLGQRQPPPSEP [DNAJC4] | 4.79 ± 0.22 | 4.79 ± 0.087 | – | – |
| RAVDWWALGILIFEMLSGFPPFFD [PRKX] | 2.99 ± 0.42 | 2.78 ± 0.57 | – | – |
| RDNGDPSLSSTATVLLVLEDEDPE [PCDHGC5] | 4.94 ± 0.36 | 5.16 ± 0.12 | – | – |
| RDQGSSALSGVGGIRLPNGKLKCD [IKZF1] | 4.66 ± 0.33 | 4.68 ± 0.32 | – | – |
| RDQHPQPSLGDSLESIPSLSQSPE [RTN2] | 5.44 ± 0.18 | 5.55 ± 0.12 | – | – |
| RDSHGKGIPNAIISVEGINHDIRT [CPXM2] | 4.2 ± 0.21 | 4.17 ± 0.27 | – | – |
| RDWWNSTSFSNYYRTWNVVVHDWL [SOAT2] | 2.35 ± 0.34 | 2.26 ± 0.21 | – | – |
| RDYIHSLKLLNVLEEYITDEQKEE [FAM9B] | 3.37 ± 0.38 | 3.52 ± 0.34 | – | – |
| REALTRLQELCYQWLRPHVSTKEQ [ZSCAN9] | 1.99 ± 0.24 | 2.46 ± 0.32 | – | – |
| REALVLRSVRVRLLLSFWKETDPL [PLD5] | 2.58 ± 1.1 | 2.38 ± 0.39 | – | – |
| RELWLKFHEVGTEMIITKAGRRMF [TBX5] | 2.31 ± 0.23 | 2.37 ± 0.31 | – | – |
| RENKRMADSLASKVTRLKSLALDI [BET1L] | 2.63 ± 0.12 | 2.7 ± 0.31 | – | – |
| RERIQILKTSEVTQHLPRECLPEN [PTPN9] | 4.46 ± 0.19 | 4.36 ± 0.31 | – | – |
| RERLGEIHTLPLPASLKAYLLYQ [SPSB1] | – | – | 2.3 ± 0.32 | 2.26 ± 0.27 |
| REWYYGNVTRHQAECALNERGVEG [NCK2] | 3.33 ± 0.12 | 3.68 ± 0.16 | – | – |
| RFHGRLLFLKDVLGDEICCWSFYG [KCTD13] | 2.49 ± 0.38 | 2.56 ± 0.71 | – | – |
| RFTGTMDAFVKIVRHEGTRTLWSG [SLC25A39] | 2.53 ± 0.52 | 2.47 ± 0.25 | – | – |
| RHSNVVILTTSNITEKIDVAFVDR [TRIP13] | 2.34 ± 0.29 | 2.14 ± 0.16 | – | – |
| RIFKLSRHSKGLQILGQTLKASMR [KCNA1] | 2.54 ± 0.4 | 2.65 ± 0.58 | – | – |
| RIFRLPNNWYYISPRLTFQCLEDL [SLA] | 2.53 ± 0.28 | 2.38 ± 0.39 | – | – |
| RIIYQNKCMRNGPNALIASLALGD [EDNRA] | 2.48 ± 0.18 | 2.26 ± 0.21 | – | – |

| Sequence | protein stability index [1] | protein stability index [2] | protein stability index (treatment: DMSO, c terminus: native) | protein stability index (treatment: MLN4924 1 uM, 8 h, c terminus: native) |
| --- | --- | --- | --- | --- |
| RKAITEAANAARHVAPEIRELLTQ [PWWP2B] | 4.06 ± 0.29 | 4.05 ± 0.079 | – | – |
| RKDTKEIYTHFTCATDTKNVQFVF [GNAI1] | 2.49 ± 1 | 2.64 ± 0.43 | – | – |
| RLCGRQVSRGPGVNVGTTALWKHL [ZBED2] | 2.29 ± 0.36 | 2.17 ± 0.31 | – | – |
| RLDIVKYLVENNANISIANKYDNT [FEM1B] | 2.5 ± 0.17 | 2.64 ± 0.4 | – | – |
| RLEALSTERDEIEDVKCQEDQKLQ [TRIM15] | 5.21 ± 0.32 | 5.66 ± 0.16 | – | – |
| RLEDKVKTLKAENAGLSSTAGLLR [JUNB] | 3.7 ± 0.22 | 3.97 ± 0.3 | – | – |
| RLELERKIESLMDEIEFLKKLHEE [PRPH] | 3.32 ± 0.17 | 3.44 ± 0.31 | – | – |
| RLGPYVLLEPEEGGRAYQALHCPT [TRIB3] | 2.69 ± 0.1 | 2.87 ± 0.38 | – | – |
| RLKCRSFKWYLENVYPEMRVYNNT [GALNT9] | 2.42 ± 0.17 | 2.19 ± 0.2 | – | – |
| RLKEYTIKSHSSLPPNNSYADFER [DAPK3] | 3.58 ± 0.26 | 3.61 ± 0.25 | – | – |
| RLNLTNTKQNFFSQTPILQALQHV [INTS3] | 2.23 ± 0.092 | 2.5 ± 0.17 | – | – |
| RLVFLAAFVVYLETETLVTREAVT [TSN] | 3.6 ± 0.24 | 2.82 ± 0.34 | – | – |
| RLVRVFRIFKLSRHSKGLQILGQT [KCNA1] | 2.65 ± 0.57 | 2.29 ± 0.36 | – | – |
| RMGATMAAINSIYSNTDANILFYV [GLT8D2] | 2.63 ± 0.59 | 3.14 ± 1.5 | – | – |
| RMTISLTVILIESTNEITYGLPIM [CLCN6] | 2.98 ± 0.3 | 3.06 ± 0.092 | – | – |
| RNLEDIHMSLEKDIAAMTNSLFID [TEKT4] | 3.29 ± 0.33 | 3.33 ± 0.27 | – | – |
| RNLHSHYHEAPMTRKHYQVTGYGI [POMT2] | 2.35 ± 0.15 | 2.46 ± 0.23 | – | – |
| RNSLSAIFNNVMTLCAMLPLLLFT [SLC29A1] | 3.3 ± 0.65 | 3.33 ± 0.22 | – | – |
| RPRALPCQRSRYRDSLTQPDEEPM [RSPH3] | 4.62 ± 0.36 | 5.01 ± 0.17 | – | – |
| RPRKLYKHSSTSSRIAKGGVDHTK [BTBD10] | 4.06 ± 0.21 | 4.12 ± 0.23 | – | – |
| RRFNFDTDRPLLSTLEESVVRICC [SMG5] | 2.17 ± 0.25 | 2.19 ± 0.22 | – | – |
| RSALWCLGLNAAFWFFALTSLRLV [RETREG3] | 2.91 ± 0.53 | 3.03 ± 0.72 | – | – |
| RSHSDSLDHDIFQLIDPDENKENE [CDC25A] | 5.14 ± 0.44 | 5.48 ± 0.2 | – | – |

| Sequence | protein stability index [1] | protein stability index [2] | protein stability index (treatment: DMSO, c terminus: native) | protein stability index (treatment: MLN4924 1 uM, 8 h, c terminus: native) |
| --- | --- | --- | --- | --- |
| RSWMFRRGPLNSDRSDYFAAWGAR [TRIM43] | 2.5 ± 0.14 | 2.62 ± 0.47 | – | – |
| RTKVVKPYSTVDNPVYYGPSDFFI [EFHC1] | 2.35 ± 0.22 | 2.42 ± 0.36 | – | – |
| RTLKSYLGLTNQSRRYNRKEPAEF [ZNF649] | 3.09 ± 0.31 | 3.05 ± 0.48 | – | – |
| RTSSGTSREKTACAINKVGVSFST [FAM98B] | 3.29 ± 0.29 | 3.87 ± 0.46 | – | – |
| RVKLISNKGTETDNDPSCVHPIIK [PHTF1] | 3.58 ± 0.16 | 3.83 ± 0.35 | – | – |
| RVPAGIFKHTLSISRALLSDVVPE [MFSD9] | 2.82 ± 0.74 | 3.02 ± 0.22 | – | – |
| RVRLDSELRNVQDVVEDYKKRYEE [KRT71] | 4.81 ± 0.28 | 4.97 ± 0.32 | – | – |
| RYADLEAVNRARRPLARPIKRGDI [RHOBTB1] | 3.6 ± 0.4 | 3.83 ± 0.12 | – | – |
| SAPVETPRGKPPLNTRSQAPLLRW [HMOX1] | 3.64 ± 0.26 | 3.72 ± 0.24 | – | – |
| SASAKRVWNMTATRPKKMGSQLPK [FATE1] | 3.76 ± 0.27 | 3.79 ± 0.18 | – | – |
| SCEVSEENCERREAFWAEWKDLTL [TCAP] | 4.16 ± 0.2 | 4.21 ± 0.39 | – | – |
| SDDAAAPALETQPQGDEEDIASRY [SMOC2] | 5.62 ± 0.18 | 5.47 ± 0.11 | – | – |
| SDSDSELSSSEGLEPGSADPLANG [PSD2] | 5.5 ± 0.35 | 5.59 ± 0.14 | – | – |
| SENIKLREENEKLRLENSSLFSQA [CCDC89] | 4.65 ± 0.08 | 4.58 ± 0.2 | – | – |
| SENMWNTGSTYNLSSGMAVAGMPT [CARM1] | 3.48 ± 0.15 | 3.63 ± 0.1 | – | – |
| SFDYEQFHELQMQVTASDSGDPPL [PCDHGA10] | 4.89 ± 0.21 | 4.9 ± 0.15 | – | – |
| SFFVPRPTPSTPRPTPQDWLHRRA [ADAMTS4] | 3.4 ± 0.21 | 3.4 ± 0.084 | – | – |
| SFRAGSKGLSGGFGSRSLYSLGGV [KRT71] | 2.12 ± 0.21 | 2.77 ± 0.33 | – | – |
| SGMVTIITGLPLDNPSVLSGPMQA [SMG5] | 2.32 ± 0.35 | 2.14 ± 0.39 | – | – |
| SGQYRELGGAIDFGAAYVLEQASS [ATL3] | 3.47 ± 0.27 | 3.61 ± 0.41 | – | – |
